# Patent publication US20250313611A1 (VIB VZW, published 2025)
# Changes are numbered by the printed parent chain.
# T1: MERS-COV spike expressed on transfected cells (MERS-CoV, UniProt K9N5Q8 18-1353)
# T1 sequence: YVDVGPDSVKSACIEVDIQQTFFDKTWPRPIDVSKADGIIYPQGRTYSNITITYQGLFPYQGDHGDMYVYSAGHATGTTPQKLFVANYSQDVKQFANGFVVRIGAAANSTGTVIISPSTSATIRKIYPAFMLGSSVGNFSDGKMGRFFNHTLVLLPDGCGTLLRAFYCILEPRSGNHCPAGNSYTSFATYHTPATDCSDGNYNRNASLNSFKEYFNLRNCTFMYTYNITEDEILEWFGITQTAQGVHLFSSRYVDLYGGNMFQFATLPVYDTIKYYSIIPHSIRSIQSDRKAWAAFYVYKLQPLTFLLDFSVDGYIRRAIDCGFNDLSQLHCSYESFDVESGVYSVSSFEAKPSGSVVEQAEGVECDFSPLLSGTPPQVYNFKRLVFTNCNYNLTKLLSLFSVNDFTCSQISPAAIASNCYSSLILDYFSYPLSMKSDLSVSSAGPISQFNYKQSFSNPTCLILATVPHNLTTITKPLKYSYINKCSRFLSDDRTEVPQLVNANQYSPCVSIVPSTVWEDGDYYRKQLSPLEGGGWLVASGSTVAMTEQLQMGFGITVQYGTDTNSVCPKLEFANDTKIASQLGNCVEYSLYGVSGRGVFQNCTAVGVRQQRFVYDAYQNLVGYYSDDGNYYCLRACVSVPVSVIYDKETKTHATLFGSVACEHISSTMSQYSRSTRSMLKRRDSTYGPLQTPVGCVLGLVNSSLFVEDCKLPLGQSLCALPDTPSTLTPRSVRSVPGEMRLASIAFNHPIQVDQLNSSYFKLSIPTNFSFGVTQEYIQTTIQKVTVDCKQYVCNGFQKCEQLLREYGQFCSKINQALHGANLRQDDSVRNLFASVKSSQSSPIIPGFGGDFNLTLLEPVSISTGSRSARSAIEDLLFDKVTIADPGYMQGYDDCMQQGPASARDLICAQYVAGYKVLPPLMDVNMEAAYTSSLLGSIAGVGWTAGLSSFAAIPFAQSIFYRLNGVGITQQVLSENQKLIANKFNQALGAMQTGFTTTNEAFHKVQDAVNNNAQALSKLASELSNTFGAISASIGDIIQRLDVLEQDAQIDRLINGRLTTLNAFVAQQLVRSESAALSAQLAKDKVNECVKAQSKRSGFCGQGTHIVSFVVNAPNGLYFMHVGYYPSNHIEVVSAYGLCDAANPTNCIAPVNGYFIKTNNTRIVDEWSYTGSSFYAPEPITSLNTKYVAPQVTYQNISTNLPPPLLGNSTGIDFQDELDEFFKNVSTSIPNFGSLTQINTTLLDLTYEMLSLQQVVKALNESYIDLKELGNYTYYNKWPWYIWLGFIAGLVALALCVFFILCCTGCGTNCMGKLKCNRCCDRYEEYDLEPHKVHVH
# B1: VHH R4_DC6 (VHH)
# VHH: QVQLQESGGGLVQAGDSLRLSCAASGRILSTFTMGWFRQAPGKEREFVAAMRWNGGTKNYADSVKGRFTISRDNANSVVYLQMNSTKPEDTAVYYCAAAYVSKANYGSLWYRTPSLYDYWGQGTQVTVSS
# B2: VHH R3_DC23 (VHH)
# VHH: QVQLQESGGGLVQAGDSLTLSCAVSGRIFSTYTMGWFRQAPGKEREFVAAVRWGAGTIYYADSMKGRFTISRDSAKNTVDLQMNSTKPEDTAVYYCGAAYVSKANYGSLWYQDSRRYDYWGQGTQVTVSS
# B3: VHH R3_C4 (VHH)
# VHH: QVQLQESGGGLVQAGDSLRLSCAVSGRPFSTYTMGWFRQAPGKEREFVAAMRWSGGTIYYADSVKGRFTISRDNDKNTVNLEMNSLKPEDTAVYYCAAAYVSKANYGSLWYRASGLYDYWGQGTQVTVSS
# B4: VHH R4_DC16 (VHH)
# VHH: B3 VHH with D75A, K76Q, E82Q, L109S, A113N
# B5: VHH R3_DC2 (VHH)
# VHH: B3 VHH with A14T, A50S, I58K, A61S, T69S, K76Q, E82Q, A113N
# B6: VHH R4_DC20 (VHH)
# VHH: B3 VHH with A14T, A50S, I58M, Y59N, K76Q, E82Q, A113N
# B7: VHH R3_DC20 (VHH)
# VHH: B3 VHH with D75A, K76Q, E82Q, K87E, A113N
# B8: VHH R3_DC9 (VHH)
# VHH: B3 VHH with A14T, A50S, I58M, A61S, E82Q, A113N
# B9: VHH R4_DC13 (VHH)
# VHH: B3 VHH with A14T, A50S, I58V, A61S, E82Q, S85N, L109F, A113N, G115D
# B10: VHH R4_DC9 (VHH)
# VHH: QVQLQESGGGLVQAGDSLRLSCAASGRIFSTYTMGWFRQAPGMEREFVAAIRWSGSTVYYADSVKGRFTISRDNAKNTVYLQMNSLKPEDTAVYYCAAARVSKANYGTLWYRASGLYDYWGQGTQVTVSS
# Assays:
# [1] = biological target: T2, BSA (bovine, UniProt P02769); experiment: ELISA, coated BSA, dilution series, OD450 [3/3]
# T2 construct: coated control antigen
# T2 sequence (P02769 25-607 limits assumed): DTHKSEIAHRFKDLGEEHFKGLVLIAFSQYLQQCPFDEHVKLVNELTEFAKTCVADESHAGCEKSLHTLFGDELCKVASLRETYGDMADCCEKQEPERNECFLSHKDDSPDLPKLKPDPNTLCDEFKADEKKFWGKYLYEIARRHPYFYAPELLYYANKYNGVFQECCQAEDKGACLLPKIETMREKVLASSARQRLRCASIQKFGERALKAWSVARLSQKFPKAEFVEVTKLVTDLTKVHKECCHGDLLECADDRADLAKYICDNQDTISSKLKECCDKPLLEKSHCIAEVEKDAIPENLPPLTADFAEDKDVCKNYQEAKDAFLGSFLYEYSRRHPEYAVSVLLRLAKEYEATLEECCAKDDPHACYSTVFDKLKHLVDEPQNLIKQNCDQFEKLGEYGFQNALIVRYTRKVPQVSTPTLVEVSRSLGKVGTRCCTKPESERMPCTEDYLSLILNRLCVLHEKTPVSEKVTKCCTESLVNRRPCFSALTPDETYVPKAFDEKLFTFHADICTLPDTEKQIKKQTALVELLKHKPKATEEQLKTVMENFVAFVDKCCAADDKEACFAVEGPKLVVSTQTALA
# [2] = biological target: T3, SARS-COV-2 RBD (His-tagged, Sinobiologicals) (SARS-CoV-2 (Wuhan), UniProt P0DTC2 319-541); experiment: ELISA, coated antigen, dilution series, OD450 [3/3]
# [3] = biological target: T1, MERS-COV spike expressed on transfected …; experiment: flow cytometry, transfected HEK cells, MFI GFP+/GFP- cells [2/3]
# [4] = biological target: T3, SARS-COV-2 RBD (His-tagged, …); experiment: ELISA, coated antigen, dilution series, OD450 [1/3]
# [5] = biological target: T3, SARS-COV-2 RBD (His-tagged, …); experiment: ELISA, periplasmic extract 1/10, OD450 antigen/OD450 BSA [B]
# [6] = biological target: T1, MERS-COV spike expressed on transfected …; experiment: flow cytometry, transfected HEK cells, MFI GFP+/GFP- cells [1/3]
# [7] = biological target: T1, MERS-COV spike expressed on transfected …; experiment: flow cytometry, transfected HEK cells, MFI GFP+/GFP- cells [3/3]
# [8] = biological target: T3, SARS-COV-2 RBD (His-tagged, …); experiment: ELISA, periplasmic extract 1/10, OD450 antigen/OD450 BSA [D00002 FIG. 1 cont. D]
# [9] = biological target: T3, SARS-COV-2 RBD (His-tagged, …); experiment: as above; remark: listed apart in the source
binder,measurement,setting,value
B1,binding result,[1],no binding (tested: 10 µg/ml)
same,binding result,[2],no binding (tested: 10 µg/ml)
same,binding result,[3],no binding (tested: not given)
B2,binding result,[4],no binding (tested: 10 µg/ml)
same,binding result,[3],no binding (tested: not given)
B3,binding result,[5],"no binding (tested: extract 1/10, concentration not given)"
same,binding result,[6],no binding (tested: not given)
B4,binding result,[7],no binding (tested: not given)
same,binding result,[8],"no binding (tested: extract 1/10, concentration not given)"
B5,binding result,[6],no binding (tested: not given)
B6,binding result,[4],no binding (tested: 10 µg/ml)
same,binding result,[7],no binding (tested: not given)
B7,binding result,[6],no binding (tested: not given)
B8,binding result,[6],no binding (tested: not given)
B9,binding result,[3],no binding (tested: not given)
same,binding result,[9],"no binding (tested: extract 1/10, concentration not given)"
B10,binding result,[1],no binding (tested: 10 µg/ml)
same,binding result,[2],no binding (tested: 10 µg/ml)
same,binding result,[3],no binding (tested: not given)
